For test [1], the target named is T1, α1-antichymotrypsin (UniProt P01011 24-423).
T1 sequence (looked up): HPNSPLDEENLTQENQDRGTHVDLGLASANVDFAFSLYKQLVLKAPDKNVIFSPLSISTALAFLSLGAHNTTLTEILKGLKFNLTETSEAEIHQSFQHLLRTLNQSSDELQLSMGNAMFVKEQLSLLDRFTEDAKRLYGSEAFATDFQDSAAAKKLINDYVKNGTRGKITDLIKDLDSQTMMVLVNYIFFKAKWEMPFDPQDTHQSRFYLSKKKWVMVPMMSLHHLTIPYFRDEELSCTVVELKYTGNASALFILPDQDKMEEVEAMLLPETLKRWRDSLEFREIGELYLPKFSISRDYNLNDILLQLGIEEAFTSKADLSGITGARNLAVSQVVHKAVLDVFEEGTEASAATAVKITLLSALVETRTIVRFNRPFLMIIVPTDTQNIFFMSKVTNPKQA
Nature of the test: competition ELISA (DELFIA): PICK167_A01 IgG1 coated on the plate, biotinylated human PAI-1, titration of the unlabelled test antigen. On the technique in general: In an ELISA, binding on a coated surface is turned into a signal by an enzyme label.

The target of test [2] is T2, mouse PAI-1 (mouse, UniProt P22777 24-401).
T2 construct: bought (US Biological); also called murine PAI-1
T2 sequence: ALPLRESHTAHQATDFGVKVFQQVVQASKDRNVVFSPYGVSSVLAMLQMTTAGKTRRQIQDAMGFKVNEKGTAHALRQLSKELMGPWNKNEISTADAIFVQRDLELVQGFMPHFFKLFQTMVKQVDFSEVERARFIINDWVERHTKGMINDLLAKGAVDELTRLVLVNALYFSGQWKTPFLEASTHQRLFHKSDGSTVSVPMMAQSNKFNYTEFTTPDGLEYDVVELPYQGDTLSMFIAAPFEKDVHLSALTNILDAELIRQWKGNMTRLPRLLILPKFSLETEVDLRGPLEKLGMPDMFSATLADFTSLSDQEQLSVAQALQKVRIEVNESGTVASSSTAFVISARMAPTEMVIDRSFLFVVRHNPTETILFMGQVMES
Nature of the test: IgG competition ELISA (DELFIA) against biotinylated human PAI-1, one-site binding analysis; column Mouse.

B1: PICK167_A01 IgG1 (antibody, V domains shown)
VH: QVQLQQSGAEVKKPGSSVKVSCKASGGTFSSYAISWVRQAPGQRLEWMGGIIPTFGTANYAQKFQGRVTITADESTSTAYMELSGLRSEDTAVYYCARERRQWLEGHFDYWGRGTPVTVSS
VL: DIQMTQSPSFLSASIGDRVTITCRASEGIYHNLAWYQQKPGKAPKLLIYKASSLASGAPSRFSGSRSGTDFTLTISSLQPDDFATYYCQQYSNYPLTFGGGTKLEIKR
As for B1, the binding result in test [1] is listed as “no binding (tested: log M about -6.3 (about 5e-7 M))”. In test [2], the “fold difference in observed binding KD compared to human wild-type active” value worked out at 47 fold.

Source of the values: patent US20120114652A1 (AbbVie / Abbott, published 2012).
